The record followed here is US20240294646A1.

The target of assay [1] is Soluble FcγRIIb extracellular domain with C-terminal 10×His tag (UniProt P31994). Briefly: SPR; IIb-Fold / IIaR-Fold (FcγRIIb against FcγRIIaR). In general terms: In SPR one partner is held on a chip, and binding of the other changes the refractive index at the surface.
Assay [2] addresses Biotinylated FcγRIIb extracellular domain-Fc fusion (human) (UniProt P31994). Briefly: competition electrochemiluminescence (MSD), antibody on HER2-coated plate, biotinylated FcγRIIb-Fc; competitor FcγRIIaR-Fc at 10x.
Assay [3] addresses Soluble FcγRIIaR extracellular domain with C-terminal 10×His tag (UniProt P12318). Briefly: SPR (Biacore 4000), antibody captured on immobilised HER2, receptor as analyte.
Assay [4] addresses Soluble FcγRIIb extracellular domain with C-terminal 10×His tag (UniProt P31994). Described as above.
For assay [5], the target named is Soluble FcγRIIaR extracellular domain with C-terminal 10×His tag (UniProt P12318). Briefly: SPR; KD of WT v16463 / KD of variant.
The target in assay [6] is Soluble FcγRIIb extracellular domain with C-terminal 10×His tag (UniProt P31994). Briefly: SPR; KD of WT v16463 / KD of variant.
In assay [7] the target is FcγRIIaR, soluble extracellular domain (UniProt P12318). The assay can be described thus: SPR; fold change in affinity over control v27293 (Strategy 1 Launching Module).
For assay [8], the target named is FcγRIIb, soluble extracellular domain (UniProt P31994). The assay is described as above.
Assay [9] has the same target. The assay can be described thus: SPR; IIb-Fold/IIaR-Fold (FcγRIIb against FcγRIIaR), vs. wild-type v16463.
Assay [10] addresses FcγRIIaR, soluble extracellular domain (UniProt P12318). The assay can be described thus: SPR (General Methods Protocol 2): one-armed antibody captured on immobilised HER2, soluble receptor as analyte.
Assay [11] concerns the target FcγRIIb, soluble extracellular domain (UniProt P31994). Described as above.
The target is the same in assay [12]. The assay can be described thus: SPR; IIb-Fold/IIaR-Fold (FcγRIIb against FcγRIIaR), relative to control v27293.
The target of assay [13] is FcγRIIaR, soluble extracellular domain (UniProt P12318). The assay can be described thus: SPR; fold change in affinity over wild-type v16463.
Assay [14] concerns the target FcγRIIb, soluble extracellular domain (UniProt P31994). The assay can be described thus: SPR; fold change in affinity over wild-type v16463.
Assay [15] concerns the target FcγRIIaR (UniProt P12318). The assay can be described thus: SPR (Biacore 4000, Protocol 2), one-armed antibody captured on immobilised HER2, soluble FcγR as analyte.
Assay [16] deals with FcγRIIb (UniProt P31994). The assay is described as above.
For assay [17], the target named is FcγRIIaR (UniProt P12318). Briefly: SPR imaging (IBIS MX96), antibody spotted on chip, soluble receptor as analyte, kinetic fit, 25 C, pH 7.4.
The target of assay [18] is FcγRIIb (UniProt P31994). The description is as above.
Assay [19] deals with FcγRIIb (UniProt P31994). The assay can be described thus: derived from the SPRi KDs for FcγRIIb and FcγRIIaR, relative to WT.
Assay [20] concerns the target FcγRIIb, soluble extracellular domain (UniProt P31994). Briefly: SPR; FcγRIIb affinity fold relative to control v27294.
Assay [21] shares this target. Briefly: SPR; IIb-Fold/IIaR-Fold relative to control v27294.
Assay [22] has the same target. Briefly: SPR; IIb-Fold/IIaR-Fold (FcγRIIb over FcγRIIaR, vs WT v16463).
The target is the same in assay [23]. Briefly: SPR; fold change in FcγRIIb affinity over WT v16463.
Assay [24] has as its target FcγRIIaR, soluble extracellular domain (UniProt P12318). Briefly: SPR (Biacore 4000, Protocol 2): antibody captured on immobilised HER2, soluble receptor as analyte.
Assay [25] addresses FcγRIIb, soluble extracellular domain (UniProt P31994). Described as above.
For assay [26], the target named is FcγRIIaR, soluble extracellular domain (UniProt P12318). The assay can be described thus: SPR; FcγRIIaR affinity fold relative to control v27294.
Assay [27] shares this target. The assay can be described thus: SPR; fold change in FcγRIIaR affinity over WT v16463.
The target in assay [28] is Soluble FcγRIIb extracellular domain with C-terminal 10xHis tag (UniProt P31994). Briefly: SPR; IIb-Fold / IIaR-Fold (FcγRIIb against FcγRIIaR).
Assay [29] has the same target. Briefly: SPR; IIb selectivity relative to control v27293.
Assay [30] has the same target. Briefly: SPR (Biacore 4000); variant captured on HER2, receptor in solution.
Assay [31] concerns the target Soluble FcγRIIaR extracellular domain with C-terminal 10xHis tag (UniProt P12318). The description is as above.
Assay [32] addresses Soluble FcγRIIb extracellular domain with C-terminal 10xHis tag (UniProt P31994). Briefly: SPR; fold affinity relative to control v27293.
Assay [33] concerns the target Soluble FcγRIIaR extracellular domain with C-terminal 10xHis tag (UniProt P12318). Briefly: SPR; fold affinity relative to control v27293.
The target in assay [34] is Soluble FcγRIIb extracellular domain with C-terminal 10xHis tag (UniProt P31994). Briefly: SPR; KD of WT v16463 / KD of variant.
The target of assay [35] is Soluble FcγRIIaR extracellular domain with C-terminal 10xHis tag (UniProt P12318). The assay can be described thus: SPR; KD of WT v16463 / KD of variant.
Assay [36] concerns the target FcγRIIb, soluble extracellular domain (UniProt P31994). Briefly: SPR, Protocol 2; ratio of the fold on FcγRIIb to the fold on FcγRIIaR.
Assay [37] has as its target FcγRIIaR, soluble extracellular domain (UniProt P12318). Briefly: SPR, Protocol 2; fold over wild-type v16463.
In assay [38] the target is FcγRIIb, soluble extracellular domain (UniProt P31994). The assay can be described thus: SPR, Protocol 2; fold over wild-type v16463.
The target is the same in assay [39]. Briefly: SPR, Protocol 2; ratio of the fold on FcγRIIb to the fold on FcγRIIaR; the wild-type reference itself.
In assay [40] the target is FcγRIIaR, soluble extracellular domain (UniProt P12318). Briefly: SPR, Protocol 2; the wild-type reference itself.
Assay [41] deals with FcγRIIb, soluble extracellular domain (UniProt P31994). The assay can be described thus: SPR, Protocol 2; the wild-type reference itself.

One may read the Kd as the constant that tells how readily two partners part at equilibrium. A high value points to lower affinity.

Substance “v12, IIb-specific comparator with symmetrical E233D_G237D_P238D_H268D_P271G_A330R (antibody)” gave an IIb Selectivity in [1] of 80.5 fold. Further, the ELISA (% of non-competed FcγRIIb signal in presence of 10x FcγRIIa) in [2] was found to be 100%. Further, the results for the Kd in assay [3] and in assay [4] were 220 nM and 13 nM, respectively. For the same substance, in assay [5], the IIaR-fold amounted to 1.4 fold. This substance had an IIb-Fold in assay [6] of 112 fold.
“Variant 27293, Strategy 1 Launching Module 1 (A_G236N_G237A / B_G236D_G237F_S239D_S267V_H268D_Template 1), one-armed trastuzumab antibody” displayed an IIaR-Fold vs. Control in assay [7] of 1 fold. For the same substance, in assay [8], the IIb-Fold vs. Control was 1 fold. The substance further yielded an IIb/IIaR Selectivity vs. WT in assay [9] of 11.8 fold. Also, the results for the Kd in [10] and in assay [11] were 8.8 nM and 3.5 nM, respectively. In assay [12], this substance showed an IIb/IIaR Selectivity vs. Control of 1 fold. In addition, in [13], the IIaR-Fold vs. WT turned out to be 35 fold. In addition, the IIb-Fold vs. WT in [14] came out at 415 fold.
For the substance “v16463, wild-type one-armed trastuzumab antibody (OAA format)”, the Kd came to 310 nM with FcγRIIaR [15] and 1400 nM in the assay with FcγRIIb [16].
As to “v12 (IIb-specific comparator, symmetrical E233D_G237D_P238D_H268D_P271G_A330R), anti-CD19 (4G7) full-size antibody”, the Kd amounted to 460 nM with FcγRIIaR [17] and 13 nM with FcγRIIb [18]. In addition, the IIb Selectivity (IIb-Fold/IIaR-Fold) in the assay with FcγRIIb [19] worked out at 106 fold.
Consider “Variant 26725 (A_D270K_strat2), one-armed trastuzumab antibody with heterodimeric IgG1 Fc”, for which the IIb-Fold wrt Control in [20] is 0.3 fold. In [21], the IIb Selectivity Fold wrt Control stood at 0.9 fold. Further, the IIb Selectivity in [22] was found to be 12.5 fold. Also, the IIb-Fold in assay [23] came to 24.1 fold. The figures for the Kd in [24] and in [25] were 160 nM and 60 nM, respectively. The substance also showed an IIaR-Fold wrt Control in assay [26] of 0.3 fold. The IIaR-fold in assay [27] stood at 1.9 fold.
In assay [28], “v26133 (A_N236I_strat1), one-armed trastuzumab antibody” came in with an IIb Selectivity of 15.7 fold. The same substance yielded an IIb Selectivity Fold wrt Control in assay [29] of 1.3 fold. Besides, the Kd in assay [30] turned out to be 2.5 nM; in assay [31], 8.3 nM. This substance gave an IIb-Fold wrt Control in assay [32] of 1.4 fold. Besides, the IIaR-Fold wrt Control in assay [33] came out at 1.1 fold. This substance yielded an IIb-Fold in [34] of 585 fold. In addition, the IIaR-fold in assay [35] was determined as 37.3 fold.
With “Variant 18370 (S239D), one-armed trastuzumab antibody with heterodimeric IgG1 Fc”, the IIb/IIaR Selectivity (IIb-Fold/IIaR-Fold) in assay [36] worked out at 1.2. The substance also displayed an IIaR-fold (fold change in affinity over wild-type) in [37] of 3.8 fold. The substance further displayed an IIb-fold (fold change in affinity over wild-type) in assay [38] of 4.39 fold.
Regarding “Variant 16463, wild-type control one-armed trastuzumab antibody with heterodimeric IgG1 Fc”, the IIb/IIaR Selectivity (IIb-Fold/IIaR-Fold) in assay [39] came to 1. The IIaR-fold (fold change in affinity over wild-type) in assay [40] was found to be 1 fold. The IIb-fold (fold change in affinity over wild-type) in assay [41] came out at 1 fold.
